Assay results from the RNAGym collection of RNA variant scans (doi:10.1021/acssynbio.7b00057).

B1: Pistol ribozyme (parent)
chain: GGGUCGUUGUUCCAUAAUCGCGUGGAUAUGGCACGCAAGUUUCUACCGGGCACCGUAAAUGUCCGACUGGAGCCGUUCGGGCGGCUAUAAACAGACCUCAGGCCCGAAGCGUGGCGGCACCUGCCGCCGGUGGUAAAAAAGAUCGGAAGAGCACACGUCU

Variants of: B1
Assay: aptazyme ON/OFF ratio, guanine; higher = stronger switching; co-transcriptional cleavage with and without guanine

| Variant | aptazyme ON/OFF ratio |
| --- | --- |
| U8C G9A U10A U11G C12U | 1.26 |
| U8C G9A U10A U11G C12A | 1.04 |
| U8C G9A U10A U11G C12G | 1.12 |
| U8A U11G C12A C13G | 1.17 |
| U8A U11G C12A C13U | 1.2 |
| U8A U11G C12A C13A | 1.15 |
| U8A U10G U11G C12U C13A | 1.15 |
| U8A U10G U11G C12U C13G | 1.28 |
| U8A U10G U11G C12U C13U | 1.43 |
| U8C G9A U10A U11A C12G | 1.32 |
| U8C G9A U10A U11A C12U | 1.35 |
| U8C G9A U10A U11A C12A | 1.3 |
| U8A U10G U11C C13A | 1.06 |
| U8A U10G U11C C13G | 1.11 |
| U8A U10G U11C C13U | 1.04 |
| U8C G9A U10A C12A C13U | 1.31 |
| U8C G9A U10A C12A C13A | 1.17 |
| U8C G9A U10A C12A C13G | 1.13 |
| U8C G9A C12G C13A | 1.23 |
| U8C G9A C12G C13U | 1.26 |
| U8C G9A C12G C13G | 1.27 |
| U8A U10G U11G C12A | 1.11 |
| U8A U10G U11G C12U | 1.48 |
| U8A U10G U11G C12G | 1.23 |

| Variant | aptazyme ON/OFF ratio |
| --- | --- |
| U8C C12A | 1.52 |
| U8C C12G | 1.38 |
| U8C C12U | 1.49 |
| U8C G9A U10A U11G C12U C13U | 1.23 |
| U8C G9A U10A U11G C12U C13A | 1.18 |
| U8C G9A U10A U11G C12U C13G | 1.18 |
| U8C G9A U10A U11G C13U | 1.18 |
| U8C G9A U10A U11G C13A | 1.19 |
| U8C G9A U10A U11G C13G | 1.08 |
| U8C G9A U10A C12U C13A | 1.16 |
| U8C G9A U10A C12U C13G | 1.24 |
| U8C G9A U10A C12U C13U | 1.33 |
| U8A U11A C12U | 1.19 |
| U8A U11A C12G | 1.2 |
| U8A U11A C12A | 1.07 |
| U8C G9A | 1.78 |
| U8A U10G U11G C12A C13A | 1.18 |
| U8A U10G U11G C12A C13G | 1.15 |
| U8A U10G U11G C12A C13U | 1.44 |
| U8C G9A U10A U11A C13A | 1.17 |
| U8C G9A U10A U11A C13U | 1.28 |
| U8C G9A U10A U11A C13G | 1.07 |
| U8C G9A U10A U11A C12G C13U | 1.21 |
| U8C G9A U10A U11A C12G C13A | 1.15 |

| Variant | aptazyme ON/OFF ratio |
| --- | --- |
| U8C G9A U10A U11A C12G C13G | 1.17 |
| U8C G9A U10A U11C C12A | 1.25 |
| U8C G9A U10A U11C C12U | 1.09 |
| U8C G9A U10A U11C C12G | 1.29 |
| U8A U11A C12G C13G | 1.06 |
| U8A U11A C12G C13A | 1.18 |
| U8A U11A C12G C13U | 1.17 |
| U8A U11C C12U C13U | 1.37 |
| U8A U11C C12U C13G | 1.33 |
| U8A U11C C12U C13A | 1.38 |
| U8C C12U C13U | 1.28 |
| U8C C12U C13A | 1.26 |
| U8C C12U C13G | 1.39 |
| U8A U10G U11G | 1.16 |
| U8A U10G U11G C13G | 1.28 |
| U8A U10G U11G C13A | 1.33 |
| U8A U10G U11G C13U | 1.3 |
| U8A U10G U11G C12G C13A | 1.45 |
| U8A U10G U11G C12G C13G | 1.06 |
| U8A U10G U11G C12G C13U | 1.32 |
| U8A U11A C13U | 1.15 |
| U8A U11A C13A | 1.19 |
| U8A U11A C13G | 1.05 |
| U8A U11C C13A | 1.13 |

| Variant | aptazyme ON/OFF ratio |
| --- | --- |
| U8A U11C C13U | 1.09 |
| U8A U11C C13G | 1.08 |
| U8C G9A U10A U11A C12A C13G | 1.15 |
| U8C G9A U10A U11A C12A C13A | 1.15 |
| U8C G9A U10A U11A C12A C13U | 1.3 |
| U8C G9A C12G | 1.26 |
| U8C G9A C12A | 1.35 |
| U8C G9A C12U | 1.38 |
| U8C G9A C13U | 1.43 |
| U8C G9A C13A | 1.22 |
| U8C G9A C13G | 1.07 |
| U8C G9A U10C C12A C13G | 1.18 |
| U8C G9A U10C C12A C13A | 1.27 |
| U8C | 3.02 |
| U8C G9A U10A U11A C12U C13A | 1.28 |
| U8C G9A U10A U11A C12U C13G | 1.18 |
| U8C G9A U10A U11A C12U C13U | 1.19 |
| U8A U11C C12A | 1.29 |
| U8A U11C C12G | 1.51 |
| U8A U11C C12U | 1.54 |
| U8C G9A U10A U11C C12A C13G | 1.18 |
| U8C G9A U10A U11C C12A C13U | 1.19 |
| U8C G9A U10A U11C C12A C13A | 1.17 |
| U8A U11G C13G | 1.04 |

| Variant | aptazyme ON/OFF ratio |
| --- | --- |
| U8A U11G C13A | 1.03 |
| U8A U11G C13U | 1.04 |
| U8C G9A U10A U11G C12G C13A | 1.16 |
| U8C G9A U10A U11G C12G C13U | 1.14 |
| U8C G9A U10A U11G C12G C13G | 1.17 |
| U8C C12A C13G | 1.1 |
| U8C C12A C13U | 1.21 |
| U8C C12A C13A | 1.24 |
| U8A U11C C12A C13U | 1.38 |
| U8A U11C C12A C13G | 1.17 |
| U8A U11C C12A C13A | 1.24 |
| U8C G9A U10A C13U | 1.42 |
| U8C G9A U10A C13G | 1.05 |
| U8C G9A U10A C13A | 1.17 |
| U8C G9A U10A C12G | 1.29 |
| U8C G9A U10A C12U | 1.31 |
| U8C G9A U10A C12A | 1.22 |
| U8A U11G C12G C13G | 1.27 |
| U8A U11G C12G C13A | 1.17 |
| U8A U11G C12G C13U | 1.47 |
| U8A U11C C12G C13U | 1.12 |
| U8A U11C C12G C13G | 1.32 |
| U8A U11C C12G C13A | 1.31 |
| U8C G9A U10A U11C C12U C13G | 1.14 |

| Variant | aptazyme ON/OFF ratio |
| --- | --- |
| U8C G9A U10A U11C C12U C13U | 1.14 |
| U8C G9A U10A U11C C12U C13A | 1.13 |
| U8C G9A U10A U11C C12G C13G | 1.35 |
| U8C G9A U10A U11C C12G C13A | 1.21 |
| U8C G9A U10A U11C C12G C13U | 1.3 |
| U8C G9A C12A C13G | 1.14 |
| U8C G9A C12A C13A | 1.33 |
| U8C G9A C12A C13U | 1.17 |
| U8C G9A U10A U11C | 1.05 |
| U8C G9A U10A U11G | 1.45 |
| U8C G9A U10A U11A | 1.47 |
| U8C C13G | 1.11 |
| U8C C13A | 1.36 |
| U8C C13U | 1.55 |
| U8C G9A C12U C13G | 1.19 |
| U8C G9A C12U C13U | 1.25 |
| U8C G9A C12U C13A | 1.17 |
| U8C C12G C13G | 1.15 |
| U8C C12G C13U | 1.31 |
| U8C C12G C13A | 1.19 |
| U8C G9A U10C | 3.49 |
| U8C G9A U10A | 1.78 |
| U8C G9A U10A U11C C13U | 1.06 |
| U8C G9A U10A U11C C13G | 1.04 |

| Variant | aptazyme ON/OFF ratio |
| --- | --- |
| U8C G9A U10A U11C C13A | 1.05 |
| U8C G9A U10C C12A | 1.35 |
| U8C G9A U10A C12G C13G | 1.18 |
| U8C G9A U10A C12G C13A | 1.14 |
| U8C G9A U10A C12G C13U | 1.31 |
| U8C G9A U10A U11G C12A C13G | 1.17 |
| U8C G9A U10A U11G C12A C13A | 1.1 |
| U8C G9A U10A U11G C12A C13U | 1.11 |
| U8A U11A C12U C13A | 1.23 |
| U8A U11A C12U C13U | 1.18 |
| U8A U11A C12U C13G | 1.21 |
| U8A U11C | 1.12 |
| U8A U11G | 1.25 |
| U8A U11A | 1.14 |
| U8A U11G C12U C13U | 1.11 |
| U8A U11G C12U C13A | 1.14 |
| U8A U11G C12U C13G | 1.1 |
| U8A U11A C12A C13G | 1.16 |
| U8A U11A C12A C13A | 1.15 |
| U8A U11A C12A C13U | 1.25 |
| U8A U11G C12G | 1.18 |
| U8A U11G C12A | 1.09 |
| U8A U11G C12U | 1.28 |
